In patent publication CN114106188A (SHENZHEN PEOPLE HOSPITAL, dated 2022) one finds Kd data, which are given here for 1 molecule.

The Kd is the equilibrium constant for the complex coming apart.

The test has as its target T1, ERp57蛋白 (蛋白二硫化物异构酶A3, purified recombinant full-length protein).
T1 chain: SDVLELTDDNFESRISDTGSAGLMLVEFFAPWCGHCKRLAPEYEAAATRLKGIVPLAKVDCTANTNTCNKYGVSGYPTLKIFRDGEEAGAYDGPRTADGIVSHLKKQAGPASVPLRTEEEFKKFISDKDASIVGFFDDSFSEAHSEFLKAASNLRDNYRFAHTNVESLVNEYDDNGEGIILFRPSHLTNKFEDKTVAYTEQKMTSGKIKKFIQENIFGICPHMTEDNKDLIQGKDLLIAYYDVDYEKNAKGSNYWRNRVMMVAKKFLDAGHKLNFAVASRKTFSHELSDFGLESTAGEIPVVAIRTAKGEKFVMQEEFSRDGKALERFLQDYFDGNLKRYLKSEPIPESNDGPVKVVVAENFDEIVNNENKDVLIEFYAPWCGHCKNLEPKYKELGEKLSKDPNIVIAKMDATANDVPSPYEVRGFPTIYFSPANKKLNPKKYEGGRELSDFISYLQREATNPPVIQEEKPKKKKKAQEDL
Put plainly: SPR (Biacore), antigen protein immobilised on chip, nanobody as analyte. On the technique in general: In SPR one partner is held on a chip, and binding of the other changes the refractive index at the surface.

B1: NbA11纳米抗体 (VHH)
VHH: AVQLVESGGGLVQAGGSLRLSCAASGRAFSRYAVGWFRQTPGKEREFVAAISYHGGYTAYADSVKGRFTISRDSTSNTVHLQMNSLKPEDTAVYYCNTDARALYDYWGQGTQVTVSS
notes: Alpaca-derived nanobody from a naive phage display library; Expressed in E. coli from PET-14B with an HA tag and purified on a Ni column
Take B1: the Kd was 419 nM.
